Values of other authors, collected in article PMC3138520.

Target: NRG-1β (Homo sapiens) (UniProt Q02297)
UniProt Q02297, sequence (Q02297 20-241): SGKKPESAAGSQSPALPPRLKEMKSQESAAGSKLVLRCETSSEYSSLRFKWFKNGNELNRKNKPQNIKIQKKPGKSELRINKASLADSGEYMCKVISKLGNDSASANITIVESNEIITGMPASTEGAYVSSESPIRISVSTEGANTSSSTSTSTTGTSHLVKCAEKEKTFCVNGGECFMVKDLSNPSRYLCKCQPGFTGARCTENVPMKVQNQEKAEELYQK

HER3 (from UniProt P21860)
Kd: 10 nM
